For series [1], the target named is T1, TGFβ1 (Homo sapiens, UniProt P01137 P01137:279-390). Description: filter; boundary experiment. The conditions noted are these: tags: Genentech or R&D Systems; chain copies: 2.
For series [2], the target named is T1, TGFβ1. Description: cell_activity; also 108 and 69 nM; stimulates at low concentration.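 Also: inhibition of TGFβ1-induced luciferase reporter expression in mink lung epithelial cells.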 The conditions noted are these: tags: Genentech or R&D Systems; chain copies: 2. Here is the method: (§1) Mink lung epithelial cells (MLEC) carrying the Pail/luc construct were maintained in DME containing 10% fetal bovine serum and 400 μg/ml G418. MLEC-Pail/luc cells were plated at 3.2×10⁴ cells per well in a 96 well Falcon plate, in 100 μl of DME+10% fetal bovine serum overnight. Media was made from autoclaved water. The cells were washed three times ([…]) in serum free DME plus Solution A (1:1). Solution A is 30 mM Hepes pH 7.6, 10 mM glucose, 3.0 mM KCl, 131 mM NaCl, 1.0 mM disodium phosphate. Samples (100 μl) were added in DME containing 20 mM Hepes pH 7.5, and 0.1% BSA (Fluka, radioimmunoassay grade). All samples were in triplicate. After six hours at 37° C. in a 5% CO₂ incubator the media was removed and cells were washed three times (100 μl each) in cold PBS. Lysis buffer (75 μl) (Analytical Luminescence Laboratory) was added and the plates incubated on ice for 20 min. The plates were sealed and frozen at −80° C. until assayed. Samples (25 μl) were assayed for luciferase activity with the Enhanced Luciferase Assay Kit from Analytical Luminescence Laboratory (San Diego, Calif., USA) according to the manufacturer's instructions using the Berthold Microlumat LB96P luminometer.
(§2) Ligands tested for inhibition of TGFβ1 activity were tested at a minimum of five concentrations. […]

In series [3] the target is T1, TGFβ1. Description: filter; second determination 0.2 nM; cell IC50 69-109 nM. The following applies: tags: Genentech; biotinylated version used in bead assay; chain copies: 2.
Series [4] addresses T1, TGFβ1. Description: cell_activity; PAI-luciferase MLEC, n=4.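 Also: inhibition of TGFβ1-induced luciferase reporter expression in mink lung epithelial cells.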 The following applies: tags: Genentech or R&D Systems; chain copies: 2. Here is the method:
as §1, §2

Series [5] has as its target T1, TGFβ1. Description: filter; 37 C; cell IC50 20 and 157 nM. The conditions noted are these: tags: Genentech; biotinylated version used in bead assay; chain copies: 2.
Series [6] deals with T1, TGFβ1. Description: cell_activity; second value 157 nM.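 Also: inhibition of TGFβ1-induced luciferase reporter expression in mink lung epithelial cells.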 The conditions noted are these: tags: Genentech or R&D Systems; chain copies: 2. Here is the method:
as §1, §2

Series [7] addresses T1, TGFβ1. Description: cell_activity; second value 201 nM.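 Also: inhibition of TGFβ1-induced luciferase reporter expression in mink lung epithelial cells.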 The following applies: tags: Genentech or R&D Systems; chain copies: 2. Here is the method: as §1, §2
For series [8], the target named is T1, TGFβ1. Description: cell_activity; second value 112 nM. The following applies: tags: Genentech or R&D Systems; chain copies: 2. Here is the method:
as §1, §2

We go through 6 molecules from patent US20030180744, “High affinity oligonucleotide ligands to growth factors” (GILEAD SCIENCES, INC., published 2003).

T1 sequence (P01137 279-390, one chain of several): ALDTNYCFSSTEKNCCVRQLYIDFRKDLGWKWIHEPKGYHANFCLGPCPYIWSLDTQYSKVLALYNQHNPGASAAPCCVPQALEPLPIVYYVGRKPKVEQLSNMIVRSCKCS

B1: lib8-9 boundaries (ssRNA)
RNA: CUUCCGAGUAGACAGGAGGGAGGGGUGGAUGUGGCGUCUACUC
With B1, the binding result with TGFβ1 [1] is “binds”.

B2: lib4-12 (ssRNA)
RNA: GGGGGAGAACGCGGAUCCUGAGAAGGACGUCGGGGUCAACGGGGUGAGGUGCAGCAGAAAGGGCCGGCACCACAUGACGUAAAAGCUUCGCUCUAGAUCUCCCUUUAGUGAGGGUUA
modifications: 2'-NH2 pyrimidines
For orientation: IC50 means the concentration that gives 50% inhibition. The low end stands for greater potency in that assay, the high end for weaker potency in that assay. As usually defined, the Kd is the concentration at which binding is half-saturated. B2 returned an IC50 in the series with TGFβ1 [2] of 109 nM. In the series with TGFβ1 [3], binding was put at a Kd of 0.4 nM.

B3: lib3-13 (ssRNA)
RNA: GGGGGAGAACGCGGAUCCGAGCAAUCCCAGGCGCAUAGCUUCCGAGUAGACAGGAGGGAGGGGUGGAUGUGGCGUCUACUCGGUGUCGUGAAGCUUCGCUCUAGAUCUCCCUUUAGUGAGGGUUA
modifications: 2'-NH2 pyrimidines
B3 displayed an IC50 with TGFβ1 [4] of 25 nM.

B4: lib4-32 (ssRNA)
RNA: GGGGGAGAACGCGGAUCCGGCAACCCCAGGCGCAUAGCUUCCGAGUAGACAGGCGGGAGGGGUGGAUGUGGCGUCACGAGGAAGCUUCGCUCUAGAUCUCCCUUUAGUGAGGGUUA
modifications: 2'-NH2 pyrimidines
B4 gave a dissociation constant (Kd) in the series with TGFβ1 [5] of 0.8 nM. This molecule also yielded an IC50 in the series with TGFβ1 [6] of 20 nM.

B5: lib2-6-1-81 (ssRNA)
RNA: GGGGGAGAACGCGGAUCCUGUCUCCACCGCCGAUACUGGGGUUCCUGGGGCCCCUCCAUGCAGGAGGGGGGUGGUUCGGAG
modifications: 2'-NH2-U, 2'-F-C
Take B5: the midpoint of inhibition with TGFβ1 [7], the IC50, lay at 298 nM.

B6: lib2-6-1 (ssRNA)
RNA: GGGGGAGAACGCGGAUCCUGUCUCCACCGCCGAUACUGGGGUUCCUGGGGCCCCUCCAUGCAGGAGGGGGGUGGUUCGGAGAAAGCUUCGCUCUAGAUCUCCCUUUAGUGAGGGUUA
modifications: 2'-NH2-U, 2'-F-C
On to B6, for which the IC50 in the series with TGFβ1 [8] turned out to be 103 nM.
